The values that follow are results of earlier work, collected in PMC4192513, “A Novel Protein-Protein Interaction in the RES (REtention and Splicing) Complex” (The Journal of Biological Chemistry, 2014).

Entries after “also recorded” stand apart in the source; their conditions may differ.

This series has as its system RES complex (Snu17p, Bud13p, Pml1p). Conditions: ref [4]. An excerpt:
Previous biochemical analyses have shown that Snu17p binds Bud13p directly ([4], [6]). Based on a mutational analysis of the invariant Bud13p Trp^232 residue ([6]), the interaction of Bud13p with the Snu17p RRM has been proposed to resemble a typical UHM-ULM interaction. […] The structural findings are consistent with our initial mutagenesis analysis, which was guided by the recognition features described for the UHM family.

B1: W232A: single W232A mutant of Bud13p, from ref [4] (protein, UniProt P46947 1-266, looked up, variant W232A)
Pre-mRNA-splicing factor CWC26: MALHQYLSETYGPTKPKNKTKKKKKESKSDANSDKTSLIVKERLSTLQQEQEKSGVASFSKFDKQKSKNIWKNLETNELSHAITHPSASSITGNESKNDLKEIRAQEPLVTVADKSKTRKTIYRDAQGHKIQEDSKIDDSSFSRSKYEDEKAAEREQYLKNLNMGDVQKLGINVDAHDKKKNQTASSLTIEDPAITFTHDKERTVKTSLLGRKLYDKPAPENRFAIMPGSRADGVHRSNGFEEKWFAKQNEINEKKVQSYTLQEDY
For B1, the “interaction with Snu17p / complex formation of W232A mutant” value was “did not abolish its interaction with Snu17p; also recorded: did not prevent complex formation”.
